Tests used:
ABCE1 = biological target: T1, ABCE1 (Saccharolobus solfataricus, UniProt Q980K5, K177C/T393C); experiment: malachite green ATPase assay; assay type: biochemical; conditions: site II variant, before and after Cy3B/Atto647N labelling of the protein; 5 mM ATP, 10 mM MgCl2, pH 7.5, 80 °C
T1 construct: gene SSO0287; full length with N-terminal FeS cluster domain, C-terminal His6 tag, pSA4 vector, expressed in E. coli BL21(DE3) pRARE; about 70 kDa

[1] = biological target: 30S ribosomal subunit from Sulfolobus solfataricus (Sulfolobus solfataricus); experiment: burst-length (diffusion) analysis in single-molecule ALEX/smFRET; titration of 30S; percentage of 30S-bound ABCE1 at each concentration; 2 mM AMP-PNP, 73°C, 10 min
[2] = biological target: 30S ribosomal subunit from Sulfolobus solfataricus (Sulfolobus solfataricus); experiment: dissociation time course by burst-length analysis in single-molecule ALEX/smFRET; 30 nM labelled ABCE1 with 25 μM AMP-PNP and 12.5 μM 30S, 73°C 10 min; then 630-fold dilution with 2 μM unlabelled ABCE1, dissociation followed at 73°C for 0-10 min; the association rate is estimated from this rate and the KD

Kd [1]	koff [2]	kon [2]	Compound	malachite green ATPase assay (ABCE1)
–	–	–	Nc1ncnc2c1ncn2[C@@H]1O[C@H](COP(=O)(O)OP(=O)(O)OP(=O)(O)O)[C@@H](O)[C@H]1O [ATP]	verified by determining the basal ATP hydrolysis, which was similar to the wild type
20 nM	0.00833 s⁻¹	400000 M⁻¹ s⁻¹	ABCE1^K177C/T393C (site II variant), labelled with Cy3B and Atto647N (enzyme)	–
